Data from US20200140522A1 (US Dept. of Health and Human Services, published 2020).
Substitutions are numbered along the chain they refer to. Each block holds one molecule with its values, some of them ahead of it.

Assays:
[1] = molecular target: T1, bovine LPL (lipoprotein lipase) (bovine, UniProt P11151 29-478); assay: cell-based or functional assay
T1 sequence (looked up): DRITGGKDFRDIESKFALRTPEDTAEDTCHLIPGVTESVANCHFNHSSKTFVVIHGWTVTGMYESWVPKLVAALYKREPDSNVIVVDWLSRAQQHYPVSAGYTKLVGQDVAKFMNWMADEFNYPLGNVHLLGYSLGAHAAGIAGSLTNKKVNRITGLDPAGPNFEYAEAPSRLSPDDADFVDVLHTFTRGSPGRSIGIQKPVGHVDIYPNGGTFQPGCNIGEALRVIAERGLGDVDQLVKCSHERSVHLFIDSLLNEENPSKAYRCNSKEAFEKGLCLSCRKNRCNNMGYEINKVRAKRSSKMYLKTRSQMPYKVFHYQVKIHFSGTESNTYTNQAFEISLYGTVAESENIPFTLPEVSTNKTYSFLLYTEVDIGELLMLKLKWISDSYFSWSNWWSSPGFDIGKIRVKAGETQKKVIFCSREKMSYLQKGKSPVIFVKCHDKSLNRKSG

[2] = molecular target: T2, C2thirdhelix Stearylpos17
T2 chain: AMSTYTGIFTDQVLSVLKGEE

C2thirdhelix Stearylpos1 = molecular target: T3, C2thirdhelix Stearylpos1
T3 chain: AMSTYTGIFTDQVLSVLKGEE

C2thirdhelix Stearylpos2 = molecular target: T4, C2thirdhelix Stearylpos2
T4 chain: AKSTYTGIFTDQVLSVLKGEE

C2thirdhelix = molecular target: T5, C2thirdhelix
T5 chain: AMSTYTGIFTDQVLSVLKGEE

Delta13-31-PV = molecular target: T6, Delta13-31-PV
T6 chain: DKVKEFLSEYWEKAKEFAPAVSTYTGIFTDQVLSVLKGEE

Delta4 = molecular target: T7, Delta4
T7 chain: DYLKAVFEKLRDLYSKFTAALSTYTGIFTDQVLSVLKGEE

Delta4b T57F = molecular target: T8, Delta4b T57F
T8 chain: T7 chain with T18F, A19P, L21M

Delta4b-1 = molecular target: T9, Delta4b-1
T9 chain: T7 chain with F7K, A19P, L21M

Delta4b-2 = molecular target: T10, Delta4b-2
T10 chain: T7 chain with L10K, A19P, L21M

Delta4b-3 = molecular target: T11, Delta4b-3
T11 chain: T7 chain with F17K, A19P, L21M

Delta4b = molecular target: T12, Delta4b
T12 chain: T7 chain with A19P, L21M

Delta4c trunc10 = molecular target: T13, Delta4c trunc10
T13 chain: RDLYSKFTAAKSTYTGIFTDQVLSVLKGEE

Delta4c trunc11 = molecular target: T14, Delta4c trunc11
T14 chain: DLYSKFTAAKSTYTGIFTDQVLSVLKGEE

Delta4c trunc14 = molecular target: T15, Delta4c trunc14
T15 chain: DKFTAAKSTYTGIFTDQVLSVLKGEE

Delta4c trunc3 = molecular target: T16, Delta4c trunc3
T16 chain: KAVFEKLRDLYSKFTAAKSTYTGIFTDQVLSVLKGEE

Delta4c trunc4 = molecular target: T17, Delta4c trunc4
T17 chain: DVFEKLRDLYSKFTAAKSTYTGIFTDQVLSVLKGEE

Delta4c trunc7 = molecular target: T18, Delta4c trunc7
T18 chain: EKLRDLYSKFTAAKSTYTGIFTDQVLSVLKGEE

Delta4c = molecular target: T19, Delta4c
T19 chain: T7 chain with L21K

Delta5 = molecular target: T20, Delta5
T20 chain: T7 chain with A5E

Delta6 = molecular target: T21, Delta6
T21 chain: T7 chain with A5E, S15E

[3] = molecular target: variants of Delta5 with the indicated amino acid substitutions

free fatty acid (NEFA) production, LPL assay with high TG human plasma (1:50) [1]: 1.7 µM | free fatty acid (NEFA) production, LPL assay with human plasma [1]: 0.8 µM
Molecule: recombinant ApoC-III

molar ratio of apoC-II-a to apoC-III that overcomes the in vitro inhibition of LPL [1]: 0.1 molar ratio apoC-II-a : apoC-III
Molecule: DWLKAFYDKVAEKLKEAFPAMSTYTGIFTDQVLSVLKGEE [apoC-II-a peptide]

B1: bovine LPL (lipoprotein lipase) (protein)
chain: T1 sequence (looked up)
TG hydrolysis, in vitro LPL assay with apoC-II deficient patient sera [2]: lipidation enhanced the ability of C2thirdhelix to promote TG hydrolysis | TG hydrolysis, in vitro LPL assay with apoC-II deficient patient sera (C2thirdhelix Stearylpos1): lipidation enhanced the ability of C2thirdhelix to promote TG hydrolysis | TG hydrolysis, in vitro LPL assay with apoC-II deficient patient sera (C2thirdhelix Stearylpos2): lipidation enhanced the ability of C2thirdhelix to promote TG hydrolysis | TG hydrolysis, in vitro LPL assay with apoC-II deficient patient sera (C2thirdhelix): lipidation enhanced the ability of C2thirdhelix to promote TG hydrolysis | TG hydrolysis, in vitro LPL assay with apoC-II deficient patient sera (Delta13-31-PV): promoted TG hydrolysis in vitro in a dose-dependent manner | TG hydrolysis, LPL assay using Intralipid as substrate (Delta4): worked more efficiently than the native apoC-II protein at concentrations of between about 1 nM to about 10 µM | TG hydrolysis, in vitro LPL assay, 100 pM to 10 µM peptide (Delta4): promoted TG hydrolysis in a dose-dependent manner | TG hydrolysis, in vitro LPL assay, 100 pM to 10 µM peptide (Delta4b T57F): promoted TG hydrolysis in a dose-dependent manner | TG hydrolysis, in vitro LPL assay, 100 pM to 10 µM peptide (Delta4b-1): promoted TG hydrolysis in a dose-dependent manner | TG hydrolysis, in vitro LPL assay, 100 pM to 10 µM peptide (Delta4b-2): promoted TG hydrolysis in a dose-dependent manner | TG hydrolysis, in vitro LPL assay with apoC-II deficient patient sera (Delta4b-3): incorporation of proline at position 58 and the stearic acid modification at the lysine residue at position 56 enhanced the TG clearance ability of the exemplary apoC-III mimetic peptide Delta4 | TG hydrolysis, in vitro LPL assay, 100 pM to 10 µM peptide (Delta4b-3): promoted TG hydrolysis in a dose-dependent manner | TG hydrolysis, in vitro LPL assay with apoC-II deficient patient sera (Delta4b): incorporation of proline at position 58 and the stearic acid modification at the lysine residue at position 56 enhanced the TG clearance ability of the exemplary apoC-III mimetic peptide Delta4 | TG hydrolysis, in vitro LPL assay, 100 pM to 10 µM peptide (Delta4b): promoted TG hydrolysis in a dose-dependent manner | TG hydrolysis, LPL assay with apoC-II deficient patient sera (Delta4c trunc10): Delta4c and its truncation variants promoted TG hydrolysis | TG hydrolysis, LPL assay with apoC-II deficient patient sera (Delta4c trunc11): Delta4c and its truncation variants promoted TG hydrolysis | TG hydrolysis, LPL assay with apoC-II deficient patient sera (Delta4c trunc14): Delta4c and its truncation variants promoted TG hydrolysis | TG hydrolysis, LPL assay with apoC-II deficient patient sera (Delta4c trunc3): Delta4c and its truncation variants promoted TG hydrolysis | TG hydrolysis, LPL assay with apoC-II deficient patient sera (Delta4c trunc4): Delta4c and its truncation variants promoted TG hydrolysis | TG hydrolysis, LPL assay with apoC-II deficient patient sera (Delta4c trunc7): Delta4c and its truncation variants promoted TG hydrolysis | TG hydrolysis, LPL assay with apoC-II deficient patient sera (Delta4c): Delta4c and its truncation variants promoted TG hydrolysis | TG hydrolysis, LPL assay using Intralipid as substrate (Delta5): worked more efficiently than the native apoC-II protein at concentrations of between about 1 nM to about 10 µM | TG hydrolysis, LPL assay with apoC-II deficient patient sera (Delta6): all variants of Delta5 with the indicated amino acid substitutions and Delta6 exhibited the ability to promote TG hydrolysis in a dose dependent matter | production of free fatty acid (NEFA), LPL assay with Intralipid as substrate (recombinant ApoC-III): apoC-III inhibited the production of free fatty acid (NEFA) | TG hydrolysis, LPL assay with apoC-II deficient patient sera [3]: all variants of Delta5 with the indicated amino acid substitutions and Delta6 exhibited the ability to promote TG hydrolysis in a dose dependent matter
